Experimental data published in patent US20220380455A1 (Alector, published 2022).

Columns and labels:
MS4A6A ECL2 peptide = target: T1, MS4A6A ECL2 peptide (human); test: array SPR (Carterra MX-96), antibody captured, peptide injected; both duplicates N/A
T1 construct: also called MS4A6A ECL-2 peptides
T1 peptide: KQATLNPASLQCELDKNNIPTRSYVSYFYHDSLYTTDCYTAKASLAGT
Method: (§1) Binding kinetic characterization of the purified antibodies to MS4A6A ECL1 and ECL2 peptides was performed by Carterra (South San Francisco, Calif.) using a proprietary array Surface Plasmon Resonance (SPR) instrument (MX-96) as follows. Antibodies were printed onto a CMD5OOD chip (Xantec #SPMX CMD500D lot #SC CMD500D0117.a Exp. 31.12.18) using the Continuous Flow Microspotter (CFM). First, the chip was activated with 100 mM MES pH 5.5, 100 μL EDC (133 mM final), 100 μL of S-NHS (33.3 mM final), for 7 minutes. A lawn of anti-mouse IgG-Fc (Jackson ImmunoResearch CAT #115-005-071 lot#130410) was injected for 15 minutes to establish a surface density of 10000-12000 RU, after which the chip surface was deactivated with 1 M ethanolamine at pH 8.5 for 10 minutes. Anti-MS4A6A antibodies in question, in the form of hybridoma supernatants diluted 2:1 with HBS-EP+buffer (Teknova CAT #H8022), were then printed as duplicates with a 20 minute and a 5 minutes print from the same sample solution. Control antibodies were diluted to 20 μ/ml for printing.
(§2) To perform kinetic analysis, the peptides in question were prepared in HBS-EP+buffer with lmg/ml BSA at final assay concentrations of 2000 nM, 400 nM, 80 nM, 16 nmM, and 3.2 nM. These were then injected on the chip for five minutes, followed by a seven-minute dissociation period at 8 uL per second in a non-regenerative kinetic series. Duplicate measurements for each anti-MS4A6A antibody were taken to ensure reproducibility.
(§3) Kₐ (association rate constant; Kₒₙ), Kd (dissociation rate constant; Koff) and KD (equilibrium constant) to MS4A6A ECL-2 peptides were calculated for each of the 23 anti-MS4A6A antibodies tested, the results of which are shown below in Table 5 (clones that bound too weakly to determine these values are denoted as N/A in Table 5).

cynomolgus (cyno) MS4A6A [1] = target: T2, cynomolgus (cyno) MS4A6A (cynomolgus, UniProt Q9H2W1 1-246 (human entry)); test: flow cytometry, hybridoma supernatant, HEK293 transfected with cyno MS4A6A over parental HEK293; Screen 2
T2 construct: Full-length protein expressed in transfected HEK293, U937 or K562 cells (flow cytometry)
T2 chain: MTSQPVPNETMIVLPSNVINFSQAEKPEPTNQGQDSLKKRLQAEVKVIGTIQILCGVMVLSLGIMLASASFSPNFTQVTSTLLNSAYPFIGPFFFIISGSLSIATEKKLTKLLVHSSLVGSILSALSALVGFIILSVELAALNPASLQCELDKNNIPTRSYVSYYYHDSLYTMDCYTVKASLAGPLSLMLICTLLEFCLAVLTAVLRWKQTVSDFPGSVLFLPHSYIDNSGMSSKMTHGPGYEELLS
Method: (§4) Positive clones were expanded and then rescreened for specificity against HEK293 cells overexpressing cyno MS4A6A and parental HEK293 cells. Briefly, previously prepared, cryopreserved transiently-transfected cells were labeled with LIVE/DEAD Fixable Aqua Dead Cell Stain Kit (ThermoFisher Scientific L34957) on ice for 30 minutes. After a wash with PBS, 2×10⁵ cells were aliquoted per well in 96-well round bottom plates and incubated with 50 μl of culture supernatant on ice for 30 mins. […] Following this secondary incubation, the cells were again washed twice with ice-cold FACS buffer and resuspended in a final volume of 200 μl of FACS buffer. Analysis was performed on a FACS Canto system (BD Biosciences), with sort gates drawn to exclude dead (Aqua-positive) cells. […] The screen was repeated twice, and the numbers reported here represent the ratio of mean fluorescence level in transfected cells over parental cells.

BSA-MS4A6A-ECL2 peptide = target: T3, BSA-MS4A6A-ECL2 peptide (human, BSA-conjugated); test: peptide ELISA, hybridoma supernatant
T3 construct: Synthetic peptide derived from ECL2, conjugated to BSA, coated on the ELISA plate; also called MS4A6A-ECL2 BSA conjugated peptide; BSA-MS4A6A-ELC2 peptide
T3 peptide: T1 peptide
Method: Anti-MS4A6A hybridoma supernatants were tested for binding to MS4A6A peptides derived from ECL1 (amino acid residues 68-85 of human MS4A6A of SEQ ID NO:1) and ECL2 (amino acid residues 138-185 of human MS4A6A of SEQ ID NO:1) sequences, using an enzyme-linked immunosorbent assay (ELISA). Briefly, 96-well polystyrene plates were coated with 1-10 μg/mL of synthetic free or BSA-conjugated peptides in coating buffer (0.05M carbonate buffer, pH9.6, Millipore Sigma C3041) overnight at 4° C. Coated plates were then blocked with ELISA diluent (PBS+0.5% BSA+0.05% Tween20) for 1-hour, washed 3×300 μL in PBST (PBS+0.05% Tween20, Thermo 28352), and then the antibodies were added at various dilutions (100-1000×) in ELISA diluent. After 30 mins incubation (room temperature, with shaking), the plates were washed 3×300 μl in PBST. A secondary anti-mouse HRP antibody (Jackson Immunoresearch CAT #115-035-003) was added at a 1:1000 dilution in ELISA diluent (50 μL/well) and incubated for 30 minutes at room temperature with shaking. After a final set of washes (3×300 μl in PBST), 50 μL of TMB substrate (BioFx TMBW-1000-01) was added and the reaction was then quenched after 5-10 mins with 50 μL of stop solution (BioFx BSTP-1000-01). The quenched reaction wells were detected for absorbance at […] with a BioTek Synergy Microplate Reader using GENS 2.04 software.

MS4A6A ECL1 peptide = target: T4, MS4A6A ECL1 peptide (human); test: array SPR (Carterra MX-96), antibody captured, peptide injected
T4 construct: the description elsewhere gives ECL1 as 68-84; Human and cyno ECL1 are said to be identical
T4 peptide: SASFSPNFTQVTSTLLNS
Method: as §1, §2, §3

cynomolgus (cyno) MS4A6A [2] = target: T2, cynomolgus (cyno) MS4A6A; test: flow cytometry, hybridoma supernatant, HEK293 transfected with cyno MS4A6A over parental HEK293; Screen 1
Method: as §4

B1: 6A-1 (antibody, V domains shown)
VH: EVQLQQSGPELVKPGASVKISCKASGYSFTGYYMHWVKQSPEDSLEWIGAINPSTGGSTYSQKFKDKATLTVDKSSSTAYMQLKSLTSEESAVYYCTRFDGYGYWGQGTLVTVSA
VL: DIVMTQAAFSNPVTLGTSASISCRSSKSLLHSNGITYLYWYLQKPGQSLQLLIYQMSNLASGVPDRFSGSGSGTDFTLRISRVEAEDVGVYYCAQNLELPWTFGGGTKLEIK
notes: Mouse hybridoma antibody, tested as hybridoma supernatant (mouse IgG, detected or captured via anti-mouse IgG Fc); also called anti-MS4A6A antibody 6A-1
With B1 the binding result (MS4A6A ECL2 peptide) was “no binding (tested: 2000 nM)”, the “ratio of APC MFI on MS4A6A+/HEK parental cells” value (cynomolgus (cyno) MS4A6A [1]) was 7.6 ratio and the binding result (BSA-MS4A6A-ECL2 peptide) was “no binding”. The binding result (MS4A6A ECL1 peptide) was “no binding (tested: 2000 nM)” and the “ratio of APC MFI on MS4A6A+/HEK parental cells” value (cynomolgus (cyno) MS4A6A [2]) was 7.5 ratio.
